Source: patent US20230407373A1 (priority 2020, published 2023)
Where two headings read alike, the source gives them in different places.

B1: VIL1 (protein, UniProt P09327 2-827, looked up)
Villin-1: TKLSAQVKGSLNITTPGLQIWRIEAMQMVPVPSSTFGSFFDGDCYIILAIHKTASSLSYDIHYWIGQDSSLDEQGAAAIYTTQMDDFLKGRAVQHREVQGNESEAFRGYFKQGLVIRKGGVASGMKHVETNSYDVQRLLHVKGKRNVVAGEVEMSWKSFNRGDVFLLDLGKLIIQWNGPESTRMERLRGMTLAKEIRDQERGGRTYVGVVDGENELASPKLMEVMNHVLGKRRELKAAVPDTVVEPALKAALKLYHVSDSEGNLVVREVATRPLTQDLLSHEDCYILDQGGLKIYVWKGKKANEQEKKGAMSHALNFIKAKQYPPSTQVEVQNDGAESAVFQQLFQKWTASNRTSGLGKTHTVGSVAKVEQVKFDATSMHVKPQVAAQQKMVDDGSGEVQVWRIENLELVPVDSKWLGHFYGGDCYLLLYTYLIGEKQHYLLYVWQGSQASQDEITASAYQAVILDQKYNGEPVQIRVPMGKEPPHLMSIFKGRMVVYQGGTSRTNNLETGPSTRLFQVQGTGANNTKAFEVPARANFLNSNDVFVLKTQSCCYLWCGKGCSGDEREMAKMVADTISRTEKQVVVEGQEPANFWMALGGKAPYANTKRLQEENLVITPRLFECSNKTGRFLATEIPDFNQDDLEEDDVFLLDVWDQVFFWIGKHANEEEKKAAATTAQEYLKTHPSGRDPETPIIVVKQGHEPPTFTGWFLAWDPFKWSNTKSYEDLKAELGNSRDWSQITAEVTSPKVDVFNANSNLSSGPLPIFPLEQLVNKPVEELPEGVDPSRKEEHLSIEDFTQAFGMTPAAFSALPRWKQQNLKKEKGLF
B2: NOP58 (protein, UniProt Q9Y2X3 1-529, looked up)
Nucleolar protein 58: MLVLFETSVGYAIFKVLNEKKLQEVDSLWKEFETPEKANKIVKLKHFEKFQDTAEALAAFTALMEGKINKQLKKVLKKIVKEAHEPLAVADAKLGGVIKEKLNLSCIHSPVVNELMRGIRSQMDGLIPGVEPREMAAMCLGLAHSLSRYRLKFSADKVDTMIVQAISLLDDLDKELNNYIMRCREWYGWHFPELGKIISDNLTYCKCLQKVGDRKNYASAKLSELLPEEVEAEVKAAAEISMGTEVSEEDICNILHLCTQVIEISEYRTQLYEYLQNRMMAIAPNVTVMVGELVGARLIAHAGSLLNLAKHAASTVQILGAEKALFRALKSRRDTPKYGLIYHASLVGQTSPKHKGKISRMLAAKTVLAIRYDAFGEDSSSAMGVENRAKLEARLRTLEDRGIRKISGTGKALAKTEKYEHKSEVKTYDPSGDSTLPTCSKKRKIEQVDKEDEITEKKAKKAKIKVKVEEEEEEKVAEEEETSVKKKKKRGKKKHIKEEPLSEEEPCTSTAIASPEKKKKKKKKRENED
B3: NFXL1 (protein, UniProt Q6ZNB6 1-911, looked up)
NF-X1-type zinc finger …: MEASWRQVAGGRGRSRGRATAAPSGNGVHLRGAGGGREKGSVGAVPSGTSPGGVATTAAAGSRHSPAGSQALQTTAASELMSQKKFEEIKKANQAAARKLVEEQFSSSSEEGDEDFEGKQGKILANTFITYTTQTDGDTRELERTKQYVNEAFQAGAMTCLICIASVKRNQAVWSCSGCFCIFHMPCIQKWAKDSQFLVSSVTDDDFGKKDCPWPCPKCRFEYKRSETPSRYYCYCGKVEDPPLDPWLVPHSCGQVCEREFKPPCGHKCLLLCHPGPCPPCPKMVTTTCYCKKAKPIPRRCSAKEWSCQLPCGQKLLCGQHKCENPCHAGSCQPCPRVSRQKCVCGKKVAERSCASPLWHCDQVCGKTLPCGNHTCEQVCHVGACGECPRSGKRFCPCQKSKFSLPCTEDVPTCGDSCDKVLECGIHRCSQRCHRGPCETCRQEVEKHCRCGKHTKRMPCHKPYLCETKCVKMRDCQKHQCRRKCCPGNCPPCDQNCGRTLGCRNHKCPSVCHRGSCYPCPETVDVKCNCGNTKVTVPCGRERTTRPPKCKEQCSRPPTCHHTSQEKHRCHFGSCPPCHQPCQKVLEKCGHLCPAPCHDQALIKQTGRHQPTGPWEQPSEPAFIQTALPCPPCQVPIPMECLGKHEVSPLPCHAVGPYSCKRVCGRILDCQNHTCMKECHKVTKTDGCTGKNKAGPECLHCEEGCSKSRPLGCLHPCILRCHPGECPPCVQMLRIKCHCKITSLYVECRKITTADVNEKNLLSCCKNQCPKELPCGHRCKEMCHPGECPFNCNQKVKLRCPCKRIKKELQCNKVRENQVSIECDTTCKEMKRKASEIKEAEAKAALEEEKRRQQAELEAFENRLKGRRKKNRKRDEVAVELSLWQKHKYYLISVCGVVVVVFAWYITHDVN
B4: GANAB (protein, UniProt Q14697 29-944, looked up)
Neutral alpha-glucosidase AB: ITLAVDRSNFKTCEESSFCKRQRSIRPGLSPYRALLDSLQLGPDSLTVHLIHEVTKVLLVLELQGLQKNMTRFRIDELEPRRPRYRVPDVLVADPPIARLSVSGRDENSVELTMAEGPYKIILTARPFRLDLLEDRSLLLSVNARGLLEFEHQRAPRVSQGSKDPAEGDGAQPEETPRDGDKPEETQGKAEKDEPGAWEETFKTHSDSKPYGPMSVGLDFSLPGMEHVYGIPEHADNLRLKVTEGGEPYRLYNLDVFQYELYNPMALYGSVPVLLAHNPHRDLGIFWLNAAETWVDISSNTAGKTLFGKMMDYLQGSGETPQTDVRWMSETGIIDVFLLLGPSISDVFRQYASLTGTQALPPLFSLGYHQSRWNYRDEADVLEVDQGFDDHNLPCDVIWLDIEHADGKRYFTWDPSRFPQPRTMLERLASKRRKLVAIVDPHIKVDSGYRVHEELRNLGLYVKTRDGSDYEGWCWPGSAGYPDFTNPTMRAWWANMFSYDNYEGSAPNLFVWNDMNEPSVFNGPEVTMLKDAQHYGGWEHRDVHNIYGLYVHMATADGLRQRSGGMERPFVLARAFFAGSQRFGAVWTGDNTAEWDHLKISIPMCLSLGLVGLSFCGADVGGFFKNPEPELLVRWYQMGAYQPFFRAHAHLDTGRREPWLLPSQHNDIIRDALGQRYSLLPFWYTLLYQAHREGIPVMRPLWVQYPQDVTTFNIDDQYLLGDALLVHPVSDSGAHGVQVYLPGQGEVWYDIQSYQKHHGPQTLYLPVTLSSIPVFQRGGTIVPRWMRVRRSSECMKDDPITLFVALSPQGTAQGELFLDDGHTFNYQTRQEFLLRRFSFSGNTLVSSSADPEGHFETPIWIERVVIIGAGKPAAVVLQTKGSPESRLSFQHDPETSVLVLRKPGINVASDWSIHLR
B5: TUBB (protein, UniProt P07437 1-444, looked up)
Tubulin beta chain: MREIVHIQAGQCGNQIGAKFWEVISDEHGIDPTGTYHGDSDLQLDRISVYYNEATGGKYVPRAILVDLEPGTMDSVRSGPFGQIFRPDNFVFGQSGAGNNWAKGHYTEGAELVDSVLDVVRKEAESCDCLQGFQLTHSLGGGTGSGMGTLLISKIREEYPDRIMNTFSVVPSPKVSDTVVEPYNATLSVHQLVENTDETYCIDNEALYDICFRTLKLTTPTYGDLNHLVSATMSGVTTCLRFPGQLNADLRKLAVNMVPFPRLHFFMPGFAPLTSRGSQQYRALTVPELTQQVFDAKNMMAACDPRHGRYLTVAAVFRGRMSMKEVDEQMLNVQNKNSSYFVEWIPNNVKTAVCDIPPRGLKMAVTFIGNSTAIQELFKRISEQFTAMFRRKAFLHWYTGEGMDEMEFTEAESNMNDLVSEYQQYQDATAEEEEDFGEEAEEEA
B6: EEF1A2 (protein, UniProt Q05639 2-463, looked up)
Elongation factor 1-alpha 2: GKEKTHINIVVIGHVDSGKSTTTGHLIYKCGGIDKRTIEKFEKEAAEMGKGSFKYAWVLDKLKAERERGITIDISLWKFETTKYYITIIDAPGHRDFIKNMITGTSQADCAVLIVAAGVGEFEAGISKNGQTREHALLAYTLGVKQLIVGVNKMDSTEPAYSEKRYDEIVKEVSAYIKKIGYNPATVPFVPISGWHGDNMLEPSPNMPWFKGWKVERKEGNASGVSLLEALDTILPPTRPTDKPLRLPLQDVYKIGGIGTVPVGRVETGILRPGMVVTFAPVNITTEVKSVEMHHEALSEALPGDNVGFNVKNVSVKDIRRGNVCGDSKSDPPQEAAQFTSQVIILNHPGQISAGYSPVIDCHTAHIACKFAELKEKIDRRSGKKLEDNPKSLKSGDAAIVEMVPGKPMCVESFSQYPPLGRFAVRDMRQTVAVGVIKNVEKKSGGAGKVTKSAQKAQKAGK
B7: NOP56 (protein, UniProt O00567 1-594, looked up)
Nucleolar protein 56: MVLLHVLFEHAVGYALLALKEVEEISLLQPQVEESVLNLGKFHSIVRLVAFCPFASSQVALENANAVSEGVVHEDLRLLLETHLPSKKKKVLLGVGDPKIGAAIQEELGYNCQTGGVIAEILRGVRLHFHNLVKGLTDLSACKAQLGLGHSYSRAKVKFNVNRVDNMIIQSISLLDQLDKDINTFSMRVREWYGYHFPELVKIINDNATYCRLAQFIGNRRELNEDKLEKLEELTMDGAKAKAILDASRSSMGMDISAIDLINIESFSSRVVSLSEYRQSLHTYLRSKMSQVAPSLSALIGEAVGARLIAHAGSLTNLAKYPASTVQILGAEKALFRALKTRGNTPKYGLIFHSTFIGRAAAKNKGRISRYLANKCSIASRIDCFSEVPTSVFGEKLREQVEERLSFYETGEIPRKNLDVMKEAMVQAEEAAAEITRKLEKQEKKRLKKEKKRLAALALASSENSSSTPEECEEMSEKPKKKKKQKPQEVPQENGMEDPSISFSKPKKKKSFSKEELMSSDLEETAGSTSIPKRKKSTPKEETVNDPEEAGHRSGSKKKRKFSKEEPVSSGPEEAVGKSSSKKKKKFHKASQED
B8: DHX15 (protein, UniProt O43143 1-795, looked up)
ATP-dependent RNA helicase …: MSKRHRLDLGEDYPSGKKRAGTDGKDRDRDRDREDRSKDRDRERDRGDREREREKEKEKELRASTNAMLISAGLPPLKASHSAHSTHSAHSTHSTHSAHSTHAGHAGHTSLPQCINPFTNLPHTPRYYDILKKRLQLPVWEYKDRFTDILVRHQSFVLVGETGSGKTTQIPQWCVEYMRSLPGPKRGVACTQPRRVAAMSVAQRVADEMDVMLGQEVGYSIRFEDCSSAKTILKYMTDGMLLREAMNDPLLERYGVIILDEAHERTLATDILMGVLKEVVRQRSDLKVIVMSATLDAGKFQIYFDNCPLLTIPGRTHPVEIFYTPEPERDYLEAAIRTVIQIHMCEEEEGDLLLFLTGQEEIDEACKRIKREVDDLGPEVGDIKIIPLYSTLPPQQQQRIFEPPPPKKQNGAIGRKVVVSTNIAETSLTIDGVVFVIDPGFAKQKVYNPRIRVESLLVTAISKASAQQRAGRAGRTRPGKCFRLYTEKAYKTEMQDNTYPEILRSNLGSVVLQLKKLGIDDLVHFDFMDPPAPETLMRALELLNYLAALNDDGDLTELGSMMAEFPLDPQLAKMVIASCDYNCSNEVLSITAMLSVPQCFVRPTEAKKAADEAKMRFAHIDGDHLTLLNVYHAFKQNHESVQWCYDNFINYRSLMSADNVRQQLSRIMDRFNLPRRSTDFTSRDYYINIRKALVTGYFMQVAHLERTGHYLTVKDNQVVQLHPSTVLDHKPEWVLYNEFVLTTKNYIRTCTDIKPEWLVKIAPQYYDMSNFPQCEAKRQLDRIIAKLQSKEYSQY

Test system: HCoV-OC43 gRNA and sgRNA
Format: binding
Conditions: for target (unweighted spectral count, OC43 Probe II): OC43 Probe II capture on infected cells; for background (unweighted spectral count, no-probe control): no-probe control on infected cells

Row | Molecule | target (unweighted spectral count, OC43 Probe II) (type n_48_v, 48 hpi) | background (unweighted spectral count, no-probe control) (type n_48_v, 48 hpi) | also measured
1 | B1 | 5 | 1 | 
2 | B2 |  |  | target (unweighted spectral count, OC43 Probe II capture) (36 hpi, type n_36_v, tested against no-probe control, FDR<10%): 4
3 | B3 | 12 | 3 | 
4 | B4 | 5 | 1 | 
5 | B5 |  |  | target (unweighted spectral count) (OC43 Probe II, 12 hpi (type n_12_v), infected cells, tested against no-probe control): 11; target (unweighted spectral count, OC43 Probe II) (type n_36_v, 36 hpi): 11; background (unweighted spectral count, no-probe control) (type n_36_v, 36 hpi): 4
6 | B6 | 5 | 1 | 
7 | B7 | 5 | 1 | 
8 | B8 | 13 | 3 | 
